Experimental data published in the supplement of paper PMC9732359.
± gives the uncertainty stated by the source.

Test: protein stability index of a GFP-peptide fusion (yeast GPS) (PSI 1-4); higher = more stable; sorted into four equal gates, so the index is relative within each strain
Summary of the method: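 Tiled 17-residue peptides from yeast proteins were fused downstream of GFP on a plasmid that also expresses Cherry, and the pooled library was carried in yeast. Mid-log cultures grown in leucine-free medium were sorted into four equal gates by GFP/Cherry fluorescence ratio. Plasmids from each gate were PCR-amplified and Illumina-sequenced, and reads were assigned to strains by barcodes. Each peptide's protein stability index is the sum, over gates, of the gate's read frequency multiplied by its gate number.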

Sequence | protein stability index (doa10∆) | protein stability index (pdr5∆) | protein stability index (san1∆) | protein stability index (ubr1∆)
SNNQVIKMQRQFSQLND [MED6] | 3.01 ± 0.073 | 3.04 ± 0.059 | 3.03 ± 0.064 | 3.18 ± 0.06
LARQVKLLLLNTSAIQE [YIL149C/MLP2] | 2.19 ± 0.085 | 1.75 ± 0.073 | 1.56 ± 0.12 | 1.65 ± 0.038
SHAVEFFMSERSSRLHI [YML103C/NUP188] | 2.5 ± 0.067 | 2.73 ± 0.079 | 2.75 ± 0.087 | 2.4 ± 0.049
QAPSELELQVAKTFIDL [RPS7B] | 3.06 ± 0.054 | 3.13 ± 0.04 | 2.89 ± 0.072 | 2.99 ± 0.046
NELLKCKDDVQLQKILE [MTW1] | 2.97 ± 0.057 | 3.04 ± 0.051 | 3.05 ± 0.035 | 3.04 ± 0.037
QETASPLSQDELISLRK [YIL149C/MLP2] | 2.42 ± 0.06 | 2.22 ± 0.074 | 1.89 ± 0.11 | 2.13 ± 0.061
DDFTNELKAELDRYKRE [SEM1] | 3.09 ± 0.17 | 3.36 ± 0.14 | 2.97 ± 0.11 | 3.47 ± 0.24
DVYNRELDEHTTQIDLF [BRR2] | 3.07 ± 0.07 | 2.73 ± 0.056 | 2.9 ± 0.046 | 2.41 ± 0.04
SVYYHKGNFRTKPFENV [SNU114] | 3.35 ± 0.065 | 3.35 ± 0.091 | 3.37 ± 0.059 | 3.31 ± 0.092
FSRFVDQFIRHVLRGVE [YCG1] | 3.37 ± 0.25 | 1.5 ± 0.1 |  | 1.72 ± 0.16
HYLVLLVAKFLYPIFLL [YJR042W/NUP85] | 1.4 ± 0.035 | 1.22 ± 0.032 | 1.11 ± 0.071 | 1.13 ± 0.026
IQLIKILNSHFDALRSL [YJL041W/NSP1] | 2.54 ± 0.047 | 2.4 ± 0.039 | 2.95 ± 0.033 | 2.58 ± 0.035
REMRRKVYAQLLESYKT [RPN7] | 2.36 ± 0.081 | 2.96 ± 0.14 | 2.32 ± 0.18 | 2.7 ± 0.09
QDLSRNTLGKGQNCLDI [SNU114] | 3.35 ± 0.12 | 3.28 ± 0.12 | 3.28 ± 0.16 | 3.61 ± 0.15
IRRYCDVVAHRQLAGAI [DIS3] | 1.91 ± 0.077 | 2.2 ± 0.065 | 1.99 ± 0.097 | 2.18 ± 0.1
DNVIVINHKINNKITQL [SIR3] | 2.08 ± 0.057 | 2.13 ± 0.05 | 2.08 ± 0.053 | 2.2 ± 0.04
QDNKKIYVHVRRSTPFS [ESC2] | 2.34 ± 0.049 | 2.49 ± 0.049 | 2.61 ± 0.049 | 2.64 ± 0.04
KTFSRLDALTRHIKSKH [RPN4] | 1.11 ± 0.12 | 1.25 ± 0.087 | 1.06 ± 0.12 | 1.5 ± 0.1
NKKLIKKLSKKYNAFIA [RPL1A] | 1.45 ± 0.048 | 1.94 ± 0.052 | 1.45 ± 0.12 | 1.88 ± 0.049
GIPTDKGPRFRKLTSQE [PRE8] | 3.14 ± 0.12 | 3.52 ± 0.18 | 3.01 ± 0.25 | 3.46 ± 0.25
DMKEYDSDKGSKLNELK [SMC2] | 3.25 ± 0.14 | 3.28 ± 0.1 | 3.27 ± 0.072 | 3.29 ± 0.14
TNVSKQNDFLFSVGESL [ECM29] | 2.56 ± 0.055 | 2.92 ± 0.071 | 2.94 ± 0.1 | 2.46 ± 0.053
KKAKLVLIANDVDPIEL [RPL8A] | 3.17 ± 0.15 | 2.81 ± 0.068 | 3.09 ± 0.07 | 2.83 ± 0.072
RKVEKEKNEKEREIKRR [UBP6] | 3.32 ± 0.056 | 3.27 ± 0.054 | 3.09 ± 0.053 | 3.17 ± 0.068
IRARIPFYGSYTETDPA [SRP54] | 2.96 ± 0.092 | 2.91 ± 0.082 | 2.98 ± 0.06 | 2.96 ± 0.076
DAKSTPLRLRLYDNFVS [RPN9] | 3.3 ± 0.083 | 3.22 ± 0.088 | 3.21 ± 0.063 | 2.87 ± 0.082

Sequence | protein stability index (doa10∆) | protein stability index (pdr5∆) | protein stability index (san1∆) | protein stability index (ubr1∆)
TSSKSSSLSAIIVFGYP [YDL088C/ASM4] | 2.31 ± 0.055 | 2.06 ± 0.048 | 2.71 ± 0.072 | 2.58 ± 0.05
TIITDCAFLLTKIKDAE [YJL039C/NUP192] | 2.52 ± 0.071 | 2.78 ± 0.077 | 2.06 ± 0.13 | 2.52 ± 0.07
GSLSGNSSSMEEVMRIA [ESC2] | 2.9 ± 0.074 | 2.88 ± 0.11 | 2.45 ± 0.12 | 2.73 ± 0.083
LTQGINGKEVPLAKIYL [MED1] | 2.52 ± 0.26 | 2.95 ± 0.17 | 2.32 ± 0.2 | 2.21 ± 0.23
AVNMTQNIMTLPDGKNG [MED6] | 2.79 ± 0.11 | 3.04 ± 0.056 | 2.67 ± 0.059 | 3.07 ± 0.062
GRLDRKVEIPLPNEAGR [RPT4] | 3.16 ± 0.13 | 3.27 ± 0.1 | 3.11 ± 0.065 | 3.09 ± 0.1
LVPTASFFIASQLQEQF [FAS1] | 1.35 ± 0.047 | 1.88 ± 0.053 | 1.53 ± 0.086 | 1.86 ± 0.04
QLAVANEIIRSLSDEVM [SIR4] | 3.16 ± 0.077 | 3 ± 0.081 | 2.59 ± 0.12 | 3.21 ± 0.087
ATKAINGCIFTLNPKTG [PRP8] | 2.79 ± 0.095 | 2.73 ± 0.076 | 2.71 ± 0.059 | 2.88 ± 0.062
IGDYILKSPVLSKLCVP [QCR7] | 1.55 ± 0.061 | 1.36 ± 0.078 | 1.56 ± 0.11 | 1.69 ± 0.058
LTYKSELSKSRALQENG [YMR153W/NUP53] | 1.89 ± 0.063 | 1.95 ± 0.041 | 2.01 ± 0.085 | 1.87 ± 0.034
DKYHEQWIKFLLHTLYL [SSN8] | 2.62 ± 0.1 | 2.2 ± 0.076 | 1.93 ± 0.13 | 2.43 ± 0.052
VAFDNINTHIETLAYNS [SNF2] | 2.56 ± 0.1 | 2.85 ± 0.074 | 2.5 ± 0.063 | 1.99 ± 0.058
RYVYAHFPINVNIVEKD [RPL9A] | 2.04 ± 0.048 | 2.17 ± 0.049 | 2.06 ± 0.062 | 2.19 ± 0.043
HTKFEVAIGLNGKIWVK [RRP40] | 2.18 ± 0.084 | 2.48 ± 0.065 | 2.39 ± 0.072 | 2.56 ± 0.055
FPTDLEIFQLFTNPSVD [SWI1] | 2.59 ± 0.069 | 2.88 ± 0.078 | 2.67 ± 0.07 | 2.35 ± 0.056
MNYLLDNKINEIKLLEI [CSI1] | 2.91 ± 0.12 | 2.81 ± 0.098 | 2.67 ± 0.069 | 2.89 ± 0.091
QLSQDEHSQVEQTCVKL [SRP72] | 3.17 ± 0.16 | 3.24 ± 0.064 | 3.1 ± 0.094 | 3.25 ± 0.084
FGEWAGMTKSNIYNFSP [BRR2] | 2.94 ± 0.083 | 3.05 ± 0.082 | 2.89 ± 0.055 | 2.98 ± 0.052
LNVSNTKENGDFTLPED [PRP8] | 2.98 ± 0.1 | 3.14 ± 0.11 | 3.12 ± 0.049 | 3.21 ± 0.069
ARAAKIAPRPLDLLRPV [RPL13B] | 2.81 ± 0.07 | 3.04 ± 0.064 | 3.07 ± 0.056 | 2.41 ± 0.043
LKEQELVLYDAENDVIE [BRR2] | 3.24 ± 0.16 | 2.9 ± 0.16 | 2.99 ± 0.11 | 2.74 ± 0.11
FRFQGGIIVAVDSRATA [PRE2] | 1.45 ± 0.063 | 1.54 ± 0.072 | 1.3 ± 0.12 | 1.62 ± 0.078
VDEELGPSIYKTDPAGY [SCL1] | 3.12 ± 0.084 | 3.35 ± 0.074 | 3.29 ± 0.072 | 3.27 ± 0.083
NDNNSPHTPVTRKGYIP [YLR018C/POM34] | 3.1 ± 0.081 | 2.88 ± 0.073 | 2.85 ± 0.078 | 3.01 ± 0.055
DEEELGQRTAYHSKRDA [RPB2] | 3.4 ± 0.1 | 2.9 ± 0.14 | 3.31 ± 0.09 | 3.04 ± 0.098
